Residue numbers refer to the chain shown, from its start. Names may count otherwise. “And” between values parts separate entries of the source, which are not always exact repeats. Identical values can stand only once.
T1: recombinant Factor VIII (CSL627, rVIII-SingleChain) (Homo sapiens (Human), UniProt P00451 20-2351)
T1 construct: also called FVIII
T1 sequence: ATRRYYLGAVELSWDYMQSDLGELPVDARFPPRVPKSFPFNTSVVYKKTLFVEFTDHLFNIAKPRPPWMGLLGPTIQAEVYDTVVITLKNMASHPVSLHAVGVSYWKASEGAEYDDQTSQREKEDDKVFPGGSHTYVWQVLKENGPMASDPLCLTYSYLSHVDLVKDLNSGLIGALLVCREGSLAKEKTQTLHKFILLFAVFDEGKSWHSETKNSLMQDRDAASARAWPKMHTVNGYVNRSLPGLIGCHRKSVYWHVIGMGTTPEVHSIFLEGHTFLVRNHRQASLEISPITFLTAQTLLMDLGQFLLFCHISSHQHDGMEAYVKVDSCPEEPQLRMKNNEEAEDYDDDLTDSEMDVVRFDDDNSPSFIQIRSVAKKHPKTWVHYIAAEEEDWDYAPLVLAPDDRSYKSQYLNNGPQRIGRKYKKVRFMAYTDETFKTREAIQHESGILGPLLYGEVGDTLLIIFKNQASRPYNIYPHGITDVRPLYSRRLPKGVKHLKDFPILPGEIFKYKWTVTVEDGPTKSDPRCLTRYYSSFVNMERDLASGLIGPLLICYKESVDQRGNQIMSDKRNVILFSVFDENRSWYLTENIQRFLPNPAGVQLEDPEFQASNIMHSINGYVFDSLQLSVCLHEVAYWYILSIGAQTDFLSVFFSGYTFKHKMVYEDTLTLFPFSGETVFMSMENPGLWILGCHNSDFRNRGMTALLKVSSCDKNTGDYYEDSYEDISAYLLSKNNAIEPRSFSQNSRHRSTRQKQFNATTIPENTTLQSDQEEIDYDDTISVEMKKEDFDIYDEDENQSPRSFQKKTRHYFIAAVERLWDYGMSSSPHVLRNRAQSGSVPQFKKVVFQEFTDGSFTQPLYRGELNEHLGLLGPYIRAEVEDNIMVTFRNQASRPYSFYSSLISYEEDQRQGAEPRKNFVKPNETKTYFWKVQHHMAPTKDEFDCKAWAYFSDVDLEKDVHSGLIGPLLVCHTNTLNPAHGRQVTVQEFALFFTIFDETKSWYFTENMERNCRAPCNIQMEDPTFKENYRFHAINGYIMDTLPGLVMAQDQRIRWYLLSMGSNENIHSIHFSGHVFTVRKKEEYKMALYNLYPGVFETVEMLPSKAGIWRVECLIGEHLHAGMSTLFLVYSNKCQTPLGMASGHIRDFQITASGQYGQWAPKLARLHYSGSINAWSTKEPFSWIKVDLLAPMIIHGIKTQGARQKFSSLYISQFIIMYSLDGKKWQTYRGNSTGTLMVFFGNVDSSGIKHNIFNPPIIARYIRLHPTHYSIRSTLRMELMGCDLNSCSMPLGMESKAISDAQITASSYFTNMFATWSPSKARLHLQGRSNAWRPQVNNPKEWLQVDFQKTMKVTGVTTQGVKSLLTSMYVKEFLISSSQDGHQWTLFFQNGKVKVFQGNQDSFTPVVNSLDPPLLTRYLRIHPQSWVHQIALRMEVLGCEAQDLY

T2: recombinant Factor VIII (CSL627, rVIII-SingleChain) (Homo sapiens (Human), UniProt P00451 20-2351)
T2 construct: also called FVIII
T2 sequence: T1 sequence

B1: Hu-vWF[764-1270]-8His S764A/S766Y (other)
chain: ALYCRPPMVKLVCPADNLRAEGLECTKTCQNYDLECMSMGCVSGCLCPPGMVRHENRCVALERCPCFHQGKEYAPGETVKIGCNTCVCRDRKWNCTDHVCDATCSTIGMAHYLTFDGLKYLFPGECQYVLVQDYCGSNPGTFRILVGNKGCSHPSVKCKKRVTILVEGGEIELFDGEVNVKRPMKDETHFEVVESGRYIILLLGKALSVVWDRHLSISVVLKQTYQEKVCGLCGNFDGIQNNDLTSSNLQVEEDPVDFGNSWKVSSQCADTRKVPLDSSPATCHNNIMKQTMVDSSCRILTSDVFQDCNKLVDPEPYLDVCIYDTCSCESIGDCACFCDTIAAYAHVCAQHGKVVTWRTATLCPQSCEERNLRENGYECEWRYNSCAPACQVTCQHPEPLACPVQCVEGCHAHCPPGKILDELLQTCVDPEDCPVCEVAGRRFASGKKVTLNPSDPEHCQICHCDVVNLTCEACQEPGGLVVPPTDAPVSPTTLYVEDISEPPLHDFHHHHHHHH
B2: Hu-vWF[764-1270]-8His S764I/S766Y (other)
chain: B1 chain with A1I
B3: Hu-vWF[764-1270]-8His S764E/S766Y (other)
chain: B1 chain with A1E
B4: Hu-vWF[764-1270]-8His S764P-S766Y (other)
chain: B1 chain with A1P
B5: Hu-vWF[764-1270]-8His S764P-S766W (other)
chain: B1 chain with A1P, Y3W
B6: Hu-vWF[764-1270]-8His S764L/S766Y (other)
chain: B1 chain with A1L
B7: Hu-vWF[764-1270]-8His S764Q/S766Y (other)
chain: B1 chain with A1Q
B8: Hu-vWF[764-1270]-8His S764T/S766Y (other)
chain: B1 chain with A1T
B9: Hu-vWF[764-1270]-8His S764M/S766Y (other)
chain: B1 chain with A1M
B10: Hu-vWF[764-1270]-8His S764V/S766Y (other)
chain: B1 chain with A1V
B11: Hu-vWF[764-1270]-8His S764F/S766Y (other)
chain: B1 chain with A1F
B12: Hu-vWF[764-1270]-8His S764N/S766Y (other)
chain: B1 chain with A1N
B13: Hu-vWF[764-1270]-8His S764G/S766Y (other)
chain: B1 chain with A1G
B14: Hu-vWF[764-1270]-8His S764D/S766Y (other)
chain: B1 chain with A1D
B15: Hu-vWF[764-1270]-8His S764H/S766Y (other)
chain: B1 chain with A1H
B16: Hu-vWF[764-1270]-8His S764P-S766M (other)
chain: B1 chain with A1P, Y3M
B17: Hu-vWF[764-1270]-8His S764R/S766Y (other)
chain: B1 chain with A1R
B18: Hu-vWF[764-1270]-8His S764W/S766Y (other)
chain: B1 chain with A1W
B19: Hu-vWF[764-1270]-8His S764K/S766Y (other)
chain: B1 chain with A1K
B20: Hu-vWF[764-1270]-8His S764Y/S766Y (other)
chain: B1 chain with A1Y
B21: Hu-vWF[764-1270]-8His S764P-S766L (other)
chain: B1 chain with A1P, Y3L

Columns and labels:
[1] = target: recombinant Factor VIII (CSL627, rVIII-SingleChain) (Homo sapiens (Human)) (UniProt P00451); test: SPR, anti-His capture, FVIII injected, 37 C
[2] = target: T1, recombinant Factor VIII (CSL627, …); test: SPR, anti-His capture
Procedure: Binding kinetics were investigated by surface plasmon resonance using a Biacore 4000 biosensor at 37° C. Each mutant was captured from cell culture medium to a density of 40-150 RU on a CM-5 sensor chip pre-immobilised with anti-His antibody (14,000 RU). In an initial screening study, FVIII was injected over the captured mutants for 5 minutes at 1 nM and dissociation monitored for 5 minutes.
All sensorgrams were double referenced by subtraction of signals from a reference spot (containing only immobilised anti His antibody) and from a blank injection. Binding kinetics were determined by fitting the double referenced sensorgrams to a 1:1 kinetic model.

[3] = target: T1, recombinant Factor VIII (CSL627, …); test: SPR, anti-His capture; remark: listed apart in the source
Summary of the method: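 Capture 40-150 RU mutant from medium on anti-His (14,000 RU) CM-5; 1 nM FVIII, 5 min on / 5 min off; reference spot + blank subtracted; 1:1 fit.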

[4] = target: T2, recombinant Factor VIII (CSL627, …); test: SPR, anti-His capture, FVIII injected, pH 5.5

Molecule	Kd [2] [pM]	koff [2] [s⁻¹]	kon [2] [M⁻¹ s⁻¹]	also measured
Hu-vWF[764-1270]-8His dupS764/S764P/S766I (from UniProt P04275 767-1270)	–	–	–	Kd [1]: 0.255 nM and 0.199 nM; koff [1]: 0.00159 s⁻¹ and 0.0025 s⁻¹; kon [1]: 6.23e+06 M⁻¹ s⁻¹ and 1.25e+07 M⁻¹ s⁻¹
B1	2.42	7.21e-05	2.98e+07	–
B2	9.23	9.52e-05	1.03e+07	–
B3	3.87	7.64e-05	1.97e+07	–
B4	7.16	7.71e-05	1.08e+07	Kd [3]: 7.16 pM; koff [3]: 7.71e-05 s⁻¹; kon [3]: 1.08e+07 M⁻¹ s⁻¹
B5	–	–	–	Kd [4]: 0.172 nM; koff [4]: 4.75e-05 s⁻¹; kon [4]: 277000 M⁻¹ s⁻¹
B6	2.27	7.99e-05	3.52e+07	–
B7	9.18	0.000109	1.19e+07	–
B8	5.27	0.000136	2.58e+07	–
B9	14.4	0.000103	7.15e+06	–
B10	2.15	6.41e-05	2.99e+07	–
B11	12.2	9.36e-05	7.68e+06	–
B12	6.92	8.88e-05	1.28e+07	–
B13	1.96	2.69e-05	1.37e+07	–
B14	3.12	0.000118	3.78e+07	–
B15	6.39	0.000292	4.56e+07	–
B16	–	–	–	Kd [4]: 0.292 nM; koff [4]: 9.16e-05 s⁻¹; kon [4]: 314000 M⁻¹ s⁻¹
B17	2.85	9.2e-05	3.23e+07	–
B18	10.9	9.67e-05	8.88e+06	–
B19	43.5	0.000822	1.89e+07	–
B20	2.47	7.88e-05	3.19e+07	–
B21	–	–	–	Kd [4]: 0.234 nM; koff [4]: 0.000104 s⁻¹; kon [4]: 445000 M⁻¹ s⁻¹
